Measured values: patent US20200262867A1 (WNTRX PHARMACEUTICALS, published 2020)
*1 amine or outer side, *2 acyl side, *3 side chain or, on linkers, in order; H or OH if unused. Bridges are numbered along the chain shown (N, C = ends). Where no end group is shown, it is not given here. [ ]: non-standard residue; d: D form. Azetidine3carboxylic = O=C(C1CN([*:1])C1)[*:2]; dimethyl = N-terminal dimethyl modification; Phe(4-Cl) = N[C@@H](Cc1ccc(Cl)cc1)C(=O)O; 2Nal = N[C@@H](Cc1ccc2ccccc2c1)C(=O)O; d2Nal = N[C@H](Cc1ccc2ccccc2c1)C(=O)O; NMeCha = CN[C@@H](CC1CCCCC1)C(=O)O; NMeR = CN[C@@H](CCCNC(=N)N)C(=O)O; hArg = N=C(N)NCCCC[C@H](N)C(=O)O; NMeQ = CN[C@@H](CCC(N)=O)C(=O)O; dNMeQ = CN[C@H](CCC(N)=O)C(=O)O; Cha = N[C@@H](CC1CCCCC1)C(=O)O; dCha = N[C@H](CC1CCCCC1)C(=O)O; AllylGly = C=CC[C@H](N)C(=O)O; αMeL = CC(C)C[C@](C)(N)C(=O)O; Cba = N[C@@H](CC1CCC1)C(=O)O; S5 = C=CCCC[C@](C)(N)C(=O)O; Nle = CCCC[C@H](N)C(=O)O; Ac4c = NC1(C(=O)O)CCC1

T1: β-catenin (UniProt P35222 1-781, limits assumed)
T1 construct: also called beta-catenin
T1 sequence (looked up): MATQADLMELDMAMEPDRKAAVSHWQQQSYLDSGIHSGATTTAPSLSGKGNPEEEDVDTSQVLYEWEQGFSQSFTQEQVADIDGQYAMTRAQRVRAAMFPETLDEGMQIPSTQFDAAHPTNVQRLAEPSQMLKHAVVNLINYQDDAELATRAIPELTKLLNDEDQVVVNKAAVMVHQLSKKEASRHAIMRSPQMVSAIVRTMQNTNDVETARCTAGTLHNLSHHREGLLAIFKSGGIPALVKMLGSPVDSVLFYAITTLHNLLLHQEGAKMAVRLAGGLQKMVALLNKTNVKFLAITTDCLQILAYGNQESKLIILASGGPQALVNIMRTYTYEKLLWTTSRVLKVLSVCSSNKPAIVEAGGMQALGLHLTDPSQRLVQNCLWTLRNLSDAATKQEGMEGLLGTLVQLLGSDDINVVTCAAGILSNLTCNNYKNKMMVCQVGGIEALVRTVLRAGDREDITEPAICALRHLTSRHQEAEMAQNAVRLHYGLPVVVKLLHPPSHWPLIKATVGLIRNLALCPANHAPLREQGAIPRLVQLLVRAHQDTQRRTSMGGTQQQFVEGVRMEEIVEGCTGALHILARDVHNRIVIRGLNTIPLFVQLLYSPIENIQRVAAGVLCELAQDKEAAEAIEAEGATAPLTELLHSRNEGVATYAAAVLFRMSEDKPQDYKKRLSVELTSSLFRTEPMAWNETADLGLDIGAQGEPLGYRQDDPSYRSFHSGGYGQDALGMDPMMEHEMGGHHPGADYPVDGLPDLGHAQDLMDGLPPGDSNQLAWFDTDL

B1: SEQ ID NO: 112 (peptide)
peptide: Ac-LQTLR[S5]IQH[S5][Cba][2Nal]-NH2
modifications: staple 6-10
B2: SEQ ID NO: 113 (peptide)
peptide: Ac-[Cba]QTLR[S5]IQR[S5][Cba][2Nal]-NH2
modifications: staple 6-10
B3: SEQ ID NO: 114 (peptide)
peptide: [Cba][dNMeQ]TLR[S5]IQR[S5][Cba][2Nal]
modifications: staple 6-10; not fully specified (N-terminus, C-terminus); printed as (CBA)(N-methylQ)TLRXIQRX(CBA)(2-Nal), X/X stapled, (S) α-methyl, N-terminal Ac, C-terminal NH2
B4: SEQ ID NO: 115 (peptide)
peptide: Ac-LQT[Cba]R[S5]IQR[S5][Cba][2Nal]-NH2
modifications: staple 6-10
B5: SEQ ID NO: 123 (peptide)
peptide: Ac-L[NMeQ]T[Cha]R[S5]IQR[S5][Cba][2Nal]-NH2
modifications: staple 6-10; not fully specified; printed as L(N-methylQ)T(Cha)RXIQRX(CBA)(2-Nal)
B6: SEQ ID NO: 129 (peptide)
peptide: Ac-L[NMeQ]TLR[S5][Cba]QR[S5][Cba][2Nal]-NH2
modifications: staple 6-10; not fully specified; printed as L(N-methylQ)TLRX(CBA)QRX(CBA)(2-Nal)
B7: SEQ ID NO: 172 (peptide)
peptide: Ac-LQTLR[S5]IQR[S5][αMeL][2Nal]-NH2
modifications: staple 6-10; not fully specified (residue 2); printed as L(N-methylQ)TLRXIQRX(α-methylL)(2-Nal); also: N-methylQ at 2: D or L (both stated)
B8: SEQ ID NO: 175 (peptide)
peptide: Ac-LQTLR[S5]IQR[S5][AllylGly][2Nal]-NH2
modifications: staple 6-10
B9: SEQ ID NO: 195 (peptide)
peptide: Ac-L[NMeQ]TLR[S5]IQR[S5][Phe(4-Cl)][2Nal]-NH2
modifications: staple 6-10; not fully specified; printed as L(N-methylQ)TLRXIQRX(4-Cl-Ph)(2-Nal), X/X stapled, (S) α-methyl, N-terminal Ac, C-terminal NH2
B10: SEQ ID NO: 143 (peptide)
peptide: {4‑biphenyl acetic acid}-L[NMeQ]TLR[S5]IQR[S5][Cba][2Nal]-NH2
modifications: staple 6-10; not fully specified
B11: SEQ ID NO: 173 (peptide)
peptide: Ac-LQTLR[S5]IQR[S5][dCha][2Nal]-NH2
modifications: staple 6-10; not fully specified (residue 2); printed as L(N-methylQ)TLRXIQRXD(Cha)(2-Nal); also: N-methylQ at 2: D or L (both stated)
B12: SEQ ID NO: 144 (peptide)
peptide: dimethyl-L[NMeQ]TLR[S5]IQR[S5][Cba][2Nal]-NH2
modifications: staple 6-10; not fully specified
B13: SEQ ID NO: 174 (peptide)
peptide: Ac-LQTLR[S5]IQR[S5][NMeCha][2Nal]-NH2
modifications: staple 6-10; not fully specified (residue 2); printed as L(N-methylQ)TLRXIQRX(N-methylCha)(2-Nal); also: N-methylQ at 2: D or L (both stated)
B14: SEQ ID NO: 5 (peptide)
peptide: Ac-RERSLQTLR[S5]IQR[S5]L[2Nal]-NH2
modifications: staple 10-14; not fully specified; printed as RERSLQTLRXIQRXL(2-Nal)
B15: SEQ ID NO: 10 (peptide)
peptide: Ac-QERSLQTLR[S5]IQR[S5]L[2Nal]-NH2
modifications: staple 10-14; not fully specified; printed as QERSLQTLRXIQRXL(2-Nal)
B16: SEQ ID NO: 13 (peptide)
peptide: Ac-RERSLQTLR[S5]IQR[S5][Cba][2Nal]-NH2
modifications: staple 10-14; not fully specified; printed as RERSLQTLRXIQRX(CBA)(2-Nal)
B17: SEQ ID NO: 176 (peptide)
peptide: Ac-HRQRSLQTLR[S5]IQR[S5][Ac4c][2Nal]-NH2
modifications: staple 11-15
B18: SEQ ID NO: 178 (peptide)
peptide: Ac-HRQRSLQTLR[S5]IQR[S5][Azetidine3carboxylic][2Nal]-NH2
modifications: staple 11-15
SMILES: CC[C@H](C)[C@@H]1NC(=O)[C@@](C)(NC(=O)[C@H](CCCNC(=N)N)NC(=O)[C@H](CC(C)C)NC(=O)[C@@H](NC(=O)[C@H](CCC(N)=O)NC(=O)[C@H](CC(C)C)NC(=O)[C@H](CO)NC(=O)[C@H](CCCNC(=N)N)NC(=O)[C@H](CCC(N)=O)NC(=O)[C@H](CCCNC(=N)N)NC(=O)[C@H](Cc2c[nH]cn2)NC(C)=O)[C@@H](C)O)CCCC=CCCC[C@@](C)(C(=O)N2CC(C(=O)N[C@@H](Cc3ccc4ccccc4c3)C(N)=O)C2)NC(=O)[C@H](CCCNC(=N)N)NC(=O)[C@H](CCC(N)=O)NC1=O
B19: SEQ ID NO: 54 (peptide)
peptide: LQTLR[Nle]IQR[Nle]L[2Nal]PD
B20: SEQ ID NO: 153 (peptide)
peptide: Ac-HRQRSL[NMeQ]TLR[S5]IQR[S5][Cba][2Nal]-NH2
modifications: staple 11-15
B21: SEQ ID NO: 183 (peptide)
peptide: Ac-H[hArg]QRSLQTLR[S5]IQR[S5][Cha][2Nal]-NH2
modifications: staple 11-15
SMILES: CC[C@H](C)[C@@H]1NC(=O)[C@@](C)(NC(=O)[C@H](CCCNC(=N)N)NC(=O)[C@H](CC(C)C)NC(=O)[C@@H](NC(=O)[C@H](CCC(N)=O)NC(=O)[C@H](CC(C)C)NC(=O)[C@H](CO)NC(=O)[C@H](CCCNC(=N)N)NC(=O)[C@H](CCC(N)=O)NC(=O)[C@H](CCCCNC(=N)N)NC(=O)[C@H](Cc2c[nH]cn2)NC(C)=O)[C@@H](C)O)CCCC=CCCC[C@@](C)(C(=O)N[C@@H](CC2CCCCC2)C(=O)N[C@@H](Cc2ccc3ccccc3c2)C(N)=O)NC(=O)[C@H](CCCNC(=N)N)NC(=O)[C@H](CCC(N)=O)NC1=O
B22: SEQ ID NO: 184 (peptide)
peptide: Ac-HRQ[NMeR]SLQTLR[S5]IQR[S5][Cha][2Nal]-NH2
modifications: staple 11-15
SMILES: CC[C@H](C)[C@@H]1NC(=O)[C@@](C)(NC(=O)[C@H](CCCNC(=N)N)NC(=O)[C@H](CC(C)C)NC(=O)[C@@H](NC(=O)[C@H](CCC(N)=O)NC(=O)[C@H](CC(C)C)NC(=O)[C@H](CO)NC(=O)[C@H](CCCNC(=N)N)N(C)C(=O)[C@H](CCC(N)=O)NC(=O)[C@H](CCCNC(=N)N)NC(=O)[C@H](Cc2c[nH]cn2)NC(C)=O)[C@@H](C)O)CCCC=CCCC[C@@](C)(C(=O)N[C@@H](CC2CCCCC2)C(=O)N[C@@H](Cc2ccc3ccccc3c2)C(N)=O)NC(=O)[C@H](CCCNC(=N)N)NC(=O)[C@H](CCC(N)=O)NC1=O
B23: SEQ ID NO: 155 (peptide)
peptide: Ac-HR[NMeQ]RSL[NMeQ]TLR[S5]IQR[S5][Cba][2Nal]-NH2
modifications: staple 11-15
B24: SEQ ID NO: 158 (peptide)
peptide: Ac-H[NMeR]QRSLQTLR[S5]IQR[S5][Cba][2Nal]-NH2
modifications: staple 11-15; not fully specified; printed as H(R-Me)QRSLQTLRXIQRX(CBA)(2-Nal), X/X stapled, (S) α-methyl, N-terminal Ac, C-terminal NH2
B25: SEQ ID NO: 188 (peptide)
peptide: Ac-HRQRSLQTLR[S5]IQR[S5][Cha][d2Nal]-NH2
modifications: staple 11-15
SMILES: CC[C@H](C)[C@@H]1NC(=O)[C@@](C)(NC(=O)[C@H](CCCNC(=N)N)NC(=O)[C@H](CC(C)C)NC(=O)[C@@H](NC(=O)[C@H](CCC(N)=O)NC(=O)[C@H](CC(C)C)NC(=O)[C@H](CO)NC(=O)[C@H](CCCNC(=N)N)NC(=O)[C@H](CCC(N)=O)NC(=O)[C@H](CCCNC(=N)N)NC(=O)[C@H](Cc2c[nH]cn2)NC(C)=O)[C@@H](C)O)CCCC=CCCC[C@@](C)(C(=O)N[C@@H](CC2CCCCC2)C(=O)N[C@H](Cc2ccc3ccccc3c2)C(N)=O)NC(=O)[C@H](CCCNC(=N)N)NC(=O)[C@H](CCC(N)=O)NC1=O

These binders were tested against T1, β-catenin (assay: ALPHA Screen (BCL9/β-catenin);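 note: bead proximity readout with the polypeptide linked to donor beads and β-catenin fixed on acceptor beads, their binding bringing the beads close enough to emit signal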).
Text: In this assay, a polypeptide is conjugated to a donor bead and its target protein (i.e., β-catenin) is attached to an acceptor bead. When the two beads are in proximity due to the binding of the polypeptide to the target protein, a signal is generated and the binding affinity of the polypeptide can be quantitatively calculated. The assay may be conducted in the presence or absence of an unconjugated control polypeptide.

| Binder | IC50 [µM] |
| --- | --- |
| B1 | 5.65 |
| B2 | 6.99 |
| B3 | 4.9 |
| B4 | 4.53 |
| B5 | 3.62 |
| B6 | 2.06 |
| B7 | 8 |
| B8 | 9.71 |
| B9 | 13 |
| B10 | 6.66 |
| B11 | 14.7 |
| B12 | 2.13 |
| B13 | 6.88 |
| B14 | 1.45 |
| B15 | 4.2 |
| B16 | 0.844 |
| B17 | 0.236 |
| B18 | 0.563 |
| B19 | 14.7 |
| B20 | 0.261 |
| B21 | 0.119 |
| B22 | 0.195 |
| B23 | 0.281 |
| B24 | 0.383 |
| B25 | 0.387 |
